Laboratory results published in FireProtDB (doi:10.1093/protein/11.3.213).

Conditions: Escherichia phage lambda; pH 6.6; 25 °C; Thermal; Fluorescence; phosphate 0.1 M; reversible: yes; whole UniProt chain shown

B1: Endolysin wild type, P03706 (protein)
chain: MVEINNQRKAFLDMLAWSEGTDNGRQKTRNHGYDVIVGGELFTDYSDHPRKLVTLNPKLKSTGAGRYQLLSRWWDAYRKQLGLKDFSPKSQDAVALQQIKERGALPMIDRGDIRQAIDRCSNIWASLPGAGYGQFEHKADSLIAKFKEAGGTVREIDV
Work on B1 yielded an unfolding free energy of 3.54 kcal/mol.
